According to publication PMC7556464, “4CMenB vaccine induces elite cross-protective human antibodies that compete with human factor H for binding to meningococcal fHbp” (PLoS Pathogens, 2020):

Legend:
Assay in all cases: SPR
Settings in all cases: both partners purified
[1] = target: T1, factor H binding protein (fHbp) variant 1.1 (Neisseria meningitidis MC58, fHbp v1.1, strain)
T1 construct: also called fHbp v1.1; fHbp v1; source: E. coli BL21(DE3), purified (Ni-NTA; SEC when necessary)
T1 chain: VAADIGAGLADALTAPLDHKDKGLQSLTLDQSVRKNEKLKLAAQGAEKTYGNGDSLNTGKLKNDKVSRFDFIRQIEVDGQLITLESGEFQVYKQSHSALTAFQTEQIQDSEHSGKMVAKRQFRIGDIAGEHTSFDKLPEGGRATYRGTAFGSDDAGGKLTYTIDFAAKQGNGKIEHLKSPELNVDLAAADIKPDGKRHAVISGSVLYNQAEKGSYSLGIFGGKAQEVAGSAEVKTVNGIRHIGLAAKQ

[2] = target: T2, factor H binding protein (fHbp) variant 2.16 (Neisseria meningitidis 961-5945, UniProt Q6VS19, strain)
T2 construct: also called fHbp v2.16; fHbp v2; source: E. coli BL21(DE3), purified (Ni-NTA; SEC when necessary)

[3] = target: T3, factor H binding protein (fHbp) variant 3.28 (Neisseria meningitidis M1239, fHbp v3.28, UniProt Q19KF7, strain)
T3 construct: also called fHbp v3.28; fHbp v3; source: E. coli BL21(DE3), purified (Ni-NTA; SEC when necessary)

B1: human anti-fHbp mAb 5F12 (antibody, V domains shown)
VH: EVQLVESGGDLVKPGGSLRLSCAASGFTFSNYTMNWVRQAPGKGLEWVSSITSSSSFKYYADSVKGRFTISRDNAKNSVFLQMNSLRAEDTAIYYCARRIDSSDQDWFYYYGMDVWGLGTTVTVSS
VL: QSVLTQPPSVSAAPGQRVTISCSGSSSNIGDNYISWYQQLPGTAPKLLIYDNDQRPSGTPDRFSASKSGTSATLGVTGLQTGDEADYYCGTWDSSLNAPVFGSGTKVTVL
notes: source: Expi293, transient transfection, purified (protein G Sepharose)
For B1, the koff [1] was 0.000846 s⁻¹, the kon [1] was 854000 M⁻¹ s⁻¹ and the koff [2] was 0.00188 s⁻¹. It also gave a kon [2] of 690000 M⁻¹ s⁻¹, a koff [3] of 0.00613 s⁻¹ and a kon [3] of 350000 M⁻¹ s⁻¹.

B2: human anti-fHbp mAb 2C8 (antibody, V domains shown)
VH: QVQLVQSGAEVKKPGSSVKVSCKASGGTVINYPISWVRQVPGQGLEWMGRLVPLFGTPNYGQKFQGRITITADKSTSAAYMELIGLKSEDTAVYYCARGDTAMAPFDYWGHGTLVTVSS
VL: QLVLTQPPSVSVAPGKTATITCGGNNVGGKTVHWYQQKPGQAPVLVMSYDSDRPSGIPERFSGSNSGNTATLTISRVEAEDEADYYCQVWHGNDDHWVFGGGTKLTVL
notes: as for B1
Work on B2 yielded a koff [1] of 0.000388 s⁻¹, a kon [1] of 1.16e+06 M⁻¹ s⁻¹ and a koff [2] of 0.000689 s⁻¹. For the same binder, the kon [2] was 1.31e+07 M⁻¹ s⁻¹, the koff [3] was 0.0002 s⁻¹ and the kon [3] was 430000 M⁻¹ s⁻¹.

B3: human anti-fHbp mAb 3B7 (antibody, V domains shown)
VH: EVQLVQSGAEVKKPGSSVKVSCKASGDTFSNYPISWVRQAPGQGLEWMGGIIPIFGTANYAQKFQGRVTITADESTSTPYMELSSLRSEDTAVYYCARGDTAMAPFDYWGQGTLVTVSS
VL: SYVLTQPPSVSVAPGKTARITCGGNSIGSKSVHWYQQKPGQAPVLVIYYDSDRPSGVPERISGSNSGNTATLTISRVEAGDEADYYCQVWDSSSDSWVFGGGTKLTVL
notes: as for B1
With B3 the koff [1] was 0.00442 s⁻¹, the kon [1] was 1.71e+06 M⁻¹ s⁻¹ and the koff [2] was 7.13e-06 s⁻¹. For the same binder, the kon [2] was 1.32e+06 M⁻¹ s⁻¹, the koff [3] was 0.00083 s⁻¹ and the kon [3] was 382000 M⁻¹ s⁻¹.

B4: human anti-fHbp mAb 4B10 (antibody, V domains shown)
VH: EVQLVESGGGLVKPGGSLRLSCAASGFAFSTYSLHWVRQAPGKGLEWVSAITSSGSFLYYADSLKGRFTVSRDNAKNSLFLQMNSLRAGDTAVYYCARALQVEDGFPMFSGLDVWGQGTTVTVSS
VL: QTVVTQPPSVSEAPRQRVAISCSGSSSNIGDNSVSWYQQLPGKAPKLLIYDDDLLPSGVSDRFSASKSGTSASLAISGLQSEDEAEYYCAAWDDSLKGVVFGGGTKLTVL
notes: as for B1
B4 was tested, and the koff [1] was 0.0025 s⁻¹, the kon [1] was 7.7e+06 M⁻¹ s⁻¹ and the Kd [2] was 0.0451 nM. The koff [2] was 0.000706 s⁻¹, the kon [2] was 1.57e+07 M⁻¹ s⁻¹ and the koff [3] was 0.000473 s⁻¹. It also gave a kon [3] of 284000 M⁻¹ s⁻¹.

B5: human anti-fHbp mAb 1E10 (antibody, V domains shown)
VH: QVQLVESGGDLVKPGGSLRLSCVASGFTFSSYTMNWVRQAPGKGLEWVSSITSSSSFTYYADSVKGRFIISRDNAKNSLSLQMNNLRVEDTATYYCARRKDSSDYDWYYYYGMDVWGLGTTVTVSS
VL: QSVVTQPPSVSAAPGQKVTISCSGSSSNIGDNYMSWYQQIPGTAPKLLIFDNDQRPSGIPDRFSASKSGTSATLDITGFQTGDEADYYCGTWDSGLSAPVFGGGTKLTVL
notes: as for B1
For B5, the koff [1] was 0.000657 s⁻¹, the kon [1] was 427000 M⁻¹ s⁻¹ and the koff [2] was 0.00079 s⁻¹. The kon [2] was 630000 M⁻¹ s⁻¹, the koff [3] was 0.000495 s⁻¹ and the kon [3] was 390000 M⁻¹ s⁻¹.

B6: human anti-fHbp mAb 2G1 (antibody, V domains shown)
VH: QVQLVESGGDLVKPGGSLRLSCVASGFTFSSYTMNWVRQAPGKGLEWVSSITSSSSFTYYADSVKGRFIISRDNAKNSLSLQMNNLRVEDTATYYCARRKDSSDYDWYYYYGMDVWGLGTTVTVSS
VL: QSVLTQPPSVSAAPGQKVTISCSGSSSNIGDNYMSWYQQIPGTAPKLLIFDNDQRPSGIPDRFSASKSGTSATLDITGFQTGDEADYYCGTWDSGLSAPVFGGGTKLTVL
notes: as for B1
In the case of B6, the koff [2] is reported as 0.00045 s⁻¹, the kon [2] is reported as 270000 M⁻¹ s⁻¹ and the koff [3] is reported as 0.000584 s⁻¹. For the same binder, the kon [3] was 332000 M⁻¹ s⁻¹.

B7: human anti-fHbp mAb 1D1 (antibody, V domains shown)
VH: QVQLVGSGGGLVKPGGSLRLSCAASGFTFSSYTMNWVRQAPGKGLEWVSSISSSSGYIYYADSLKGRFTISRDDAKNSLFLQMNSLRAEDTAVYFCARDKVLPAPPGFYGLDVWGPGTTVTVSS
VL: QSVVTQPPSVSAAPGQKVTISCSGSSSNIEDNFVSWYQQLPGTAPKLLIYDNNQRPSGIPDRFSGSKSGTSATLGITGLQTGDEADYYCATWDNSLSARVFGGGTKLTVL
notes: as for B1
For B7, the koff [1] was 0.00154 s⁻¹, the kon [1] was 1.81e+06 M⁻¹ s⁻¹ and the koff [2] was 0.00264 s⁻¹. The kon [2] was 450000 M⁻¹ s⁻¹, the koff [3] was 0.000642 s⁻¹ and the kon [3] was 371000 M⁻¹ s⁻¹.

B8: human anti-fHbp mAb 3F1 (antibody, V domains shown)
VH: EVHLVESGGGLVKPGGSLRLSCAASGFTFSSYTMNWVRQAPGKGLEWVSSISSSSGYIYYADSLKGRFTISRDNAKNSLFLQMNSLRAEDTAVYFCARDKVLPAPPGFYGLDVWGPGTTVTVSS
VL: QSVVTQPPSVSAAPGQKVTISCSGSSSNIEDNFVSWYQQLPGTAPKLLIYDNNQRPSGIPDRFSGSKSGTSATLGITGLQTGDEADYYCATWDNSLSARVFGGGTKLTVL
notes: as for B1
In the case of B8, the koff [1] is reported as 0.000917 s⁻¹, the kon [1] is reported as 885000 M⁻¹ s⁻¹ and the koff [2] is reported as 0.00478 s⁻¹. The kon [2] was 382000 M⁻¹ s⁻¹, the koff [3] was 0.00063 s⁻¹ and the kon [3] was 340000 M⁻¹ s⁻¹.

B9: human anti-fHbp mAb 4F9 (antibody, V domains shown)
VH: QVQLVQSGGGLVKPGGSLRLSCAASGFPFSSYYMSWIRQAPGKGLEWVSDINNSGNVKEYADFVKGRLTISRDNVKNSMYLHMNSLRVEDTAVYYCARNRGRFDVWGQGTLVTVSA
VL: EIVMTQSPGTLSLSPGETATLSCRASQMISSPFLAWYQQRRGQAPRLLIYGASTRATDTPDRFRGSGSGTDFILTISRLEPEDFAVYYCQHYDDSPFTFGQGTKLEIK
notes: as for B1
In the case of B9, the koff [1] is reported as 0.00251 s⁻¹, the kon [1] is reported as 3.29e+07 M⁻¹ s⁻¹ and the koff [2] is reported as 3.3e-05 s⁻¹. For the same binder, the kon [2] was 1.16e+06 M⁻¹ s⁻¹, the koff [3] was 0.00095 s⁻¹ and the kon [3] was 380000 M⁻¹ s⁻¹.

B10: human anti-fHbp mAb 3G7 (antibody, V domains shown)
VH: EVQLLQSGGGLVKPGGSLRLSCAASGFPFSSYYMSWIRQAPGKGLEWVSDINNSGNVKEYADFVKGRLTISRDNVKNSMYLHMNSLRVEDTAVYYCARNRGRFDVWGQGTLVTVSA
VL: EIVLTQSPGTLSLSPGETATLSCRASQMISSPFLAWYQQRRGQAPRLLIYGASTRATDTPDRFRGSGSGTDFILTISRLEPEDFAVYYCQYYDDSPFTFGQGTKLEIK
notes: as for B1
For B10, the koff [1] was 0.000311 s⁻¹, the kon [1] was 903000 M⁻¹ s⁻¹ and the koff [2] was 3.89e-05 s⁻¹. The kon [2] was 741000 M⁻¹ s⁻¹, the koff [3] was 0.000176 s⁻¹ and the kon [3] was 258000 ± 0.01 M⁻¹ s⁻¹.

B11: human anti-fHbp mAb 4B3 (antibody, V domains shown)
VH: QVQLVQSGGGLVKPGGSLRLSCAASGFPFSSYYMSWIRQAPGKGLEWVSDINNSGNVKEYADFVKGRLTISRDNVKNSMYLHMNSLRVEDTAVYYCARNRGRFDVWGQGTLVTVSA
VL: EIVMTQSPGTLSLSPGETATLSCRASQMISSPFLAWYQQRRGQAPRLLIYGASTRATDTPDRFRGSGSGTDFILTISRLEPEDFAVYYCQYYDDSPFTFGQGTKLEIK
notes: as for B1
With B11 the koff [1] was 0.000217 s⁻¹, the kon [1] was 661000 M⁻¹ s⁻¹ and the koff [2] was 7.98e-05 s⁻¹. For the same binder, the kon [2] was 2.73e+06 M⁻¹ s⁻¹, the koff [3] was 0.0002 s⁻¹ and the kon [3] was 315000 M⁻¹ s⁻¹.

B12: human anti-fHbp mAb 5C6 (antibody, V domains shown)
VH: EVQLLESGGGLVQPGGSLRLSCAASGFTFSSYAMSWVRQTPGKGLEWVSAISGSGGSTYYADSVQGRFTISRDNSKNTLYLQINSLRAEDTAVYYCAKDPGFVLSSGWYYFDYWGQGTLVTVSS
VL: not shown
notes: as for B1
With B12 the koff [1] was 0.000454 s⁻¹, the kon [1] was 420000 M⁻¹ s⁻¹ and the koff [2] was 0.000345 s⁻¹. The kon [2] was 204000 M⁻¹ s⁻¹, the koff [3] was 0.00071 s⁻¹ and the kon [3] was 350000 M⁻¹ s⁻¹.
